# T1: recombinant human CD70 (Flag-TNC-CD70) (human) (UniProt P32970)
# T1 sequence (looked up): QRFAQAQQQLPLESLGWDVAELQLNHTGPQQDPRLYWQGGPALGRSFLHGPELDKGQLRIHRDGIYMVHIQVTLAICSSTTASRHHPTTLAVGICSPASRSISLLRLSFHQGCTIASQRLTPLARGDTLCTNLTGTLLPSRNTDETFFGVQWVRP
# T2: human CD70 expressed on the surface of cells (human) (UniProt P32970)
# T2 sequence (looked up): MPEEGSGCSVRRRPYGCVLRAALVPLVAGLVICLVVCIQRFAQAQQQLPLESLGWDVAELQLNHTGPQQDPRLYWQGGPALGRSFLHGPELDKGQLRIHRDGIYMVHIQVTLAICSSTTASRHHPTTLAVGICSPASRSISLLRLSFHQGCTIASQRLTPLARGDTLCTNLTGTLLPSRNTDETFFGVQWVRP
# T3: rhesus CD70 on LCL8664 cells (rhesus) (UniProt F7GPA5)
# T3 sequence: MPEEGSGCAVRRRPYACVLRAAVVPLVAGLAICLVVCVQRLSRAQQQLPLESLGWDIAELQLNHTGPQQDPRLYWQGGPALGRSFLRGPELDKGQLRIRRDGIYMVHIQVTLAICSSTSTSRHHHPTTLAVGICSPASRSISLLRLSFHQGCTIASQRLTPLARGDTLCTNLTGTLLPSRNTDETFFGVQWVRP
# B1: SGN70 (antibody, INN chains, looked up, V domains shown)
# VH: QVQLVQSGAEVKKPGASVKVSCKASGYTFTNYGMNWVRQAPGQGLKWMGWINTYTGEPTYADAFKGRVTMTRDTSISTAYMELSRLRSDDTAVYYCARDYGDYGMDYWGQGTTVTVSS
# VL: DIVMTQSPDSLAVSLGERATINCRASKSVSTSGYSFMHWYQQKPGQPPKLLIYLASNLESGVPDRFSGSGSGTDFTLTISSLQAEDVAVYYCQHSREVPWTFGQGTKVEIK
# B2: SGN70-Fab (Fab, INN chains, looked up, V domains shown)
# VH: QVQLVQSGAEVKKPGASVKVSCKASGYTFTNYGMNWVRQAPGQGLKWMGWINTYTGEPTYADAFKGRVTMTRDTSISTAYMELSRLRSDDTAVYYCARDYGDYGMDYWGQGTTVTVSS
# VL: DIVMTQSPDSLAVSLGERATINCRASKSVSTSGYSFMHWYQQKPGQPPKLLIYLASNLESGVPDRFSGSGSGTDFTLTISSLQAEDVAVYYCQHSREVPWTFGQGTKVEIK
# modifications: Fab
# Columns and labels:
# [1] = biological target: T1, recombinant human CD70 (Flag-TNC-CD70) (human); assay: blocking ELISA; Flag-TNC-CD70 captured by anti-FLAG M2; competitor CD27-Fc 6.5 nM
# [2] = biological target: T2, human CD70 expressed on the surface of cells (human); assay: cell-based or functional assay
# [3] = biological target: cynomolgus monkey Flag-TNC-CD70 (cynomolgus monkey); assay: blocking ELISA; cynomolgus Flag-TNC-CD70; competitor CD27-Fc
# [4] = biological target: T2, human CD70 expressed on the surface of cells (human); assay: flow cytometry on U266 cells, goat anti human IgG1 FITC [panel U266]
# [5] = biological target: T1, recombinant human CD70 (Flag-TNC-CD70) (human); assay: inhibition ELISA; Flag-TNC-CD70 captured by anti-Flag mAb; competitor CD27-Fc
# [6] = biological target: T3, rhesus CD70 on LCL8664 cells (rhesus); assay: flow cytometry on rhesus LCL8664 cells, goat anti human IgG1 FITC [panel Rhesus monkey]
# [7] = biological target: T1, recombinant human CD70 (Flag-TNC-CD70) (human); assay: blocking ELISA; human Flag-TNC-CD70; competitor CD27-Fc
# [8] = biological target: rhesus recombinant CD70 (FLAG-TNC-rhesus CD70) (rhesus); assay: blocking ELISA; rhesus Flag-TNC-CD70; competitor CD27-Fc
# [9] = biological target: T2, human CD70 expressed on the surface of cells (human); assay: flow cytometry on U266 cells, 1 h at 4 °C, anti-hIgG1-Fc-FITC or anti-hIgG-Fc-PE [panel U266]
# [10] = biological target: T1, recombinant human CD70 (Flag-TNC-CD70) (human); assay: Biacore; recombinant human CD70 on CM5 chip; Fab from papain digestion
# [11] = biological target: T1, recombinant human CD70 (Flag-TNC-CD70) (human); assay: Biacore; recombinant human CD70 on CM5 chip; Fab injected
IC50 [1],"IC50 (ng/ml), IL-8 secretion in Raji / HT1080-CD27 co-culture assay [2]",IC50 [3],EC50 (read off the curve) [4],IC50 [5],EC50 (read off the curve) [6],IC50 [7],IC50 [8],EC50 (read off the curve) [9],koff [10],koff [11],Binder
4.97 µg/mL,55 ng/mL,0.112 µg/mL,0.08 µg/mL,0.33 µg/mL,0.1 µg/mL,0.054 µg/mL,0.178 µg/mL,0.08 µg/mL,–,–,B1
–,–,–,–,–,–,–,–,–,0.0007 s⁻¹,0.0007 s⁻¹,B2
